# Measurements reported in US20240374744.
# Test system: huHF(+)-DOX (huHF(+) protein nanoparticle-doxorubicin conjugate)
# Sequence (chain, as listed by the source): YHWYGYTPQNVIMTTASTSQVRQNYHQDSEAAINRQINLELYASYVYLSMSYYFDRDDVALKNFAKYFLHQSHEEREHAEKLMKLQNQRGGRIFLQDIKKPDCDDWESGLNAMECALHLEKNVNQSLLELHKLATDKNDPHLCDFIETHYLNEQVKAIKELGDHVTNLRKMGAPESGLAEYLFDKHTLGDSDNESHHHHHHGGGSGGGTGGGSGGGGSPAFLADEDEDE
Substance,"cleavage of the conjugate and release of doxorubicin (native-PAGE, UV absorbance), enzyme in LPM mixture","cleavage of the conjugate and release of doxorubicin (native-PAGE, Coomassie staining, UV absorbance of doxorubicin)"
cathepsin B,it was observed that the peptide was not specifically cleaved thereby the drug was not selectively released,–
cathepsin D,it was observed that the peptide was not specifically cleaved thereby the drug was not selectively released,–
cathepsin E,–,"From 3 hours after staining, it was visually observed that the portion to which the anticancer drug was bound in the conjugate was effectively cleaved by cathepsin E"
cathepsin L,it was observed that the peptide was not specifically cleaved thereby the drug was not selectively released,–
